This assay addresses CD19 on tumor cells (Raji, Raji-Luc, NALM6, Reh) (human) (UniProt P15391). The assay is described as follows: cell-based or functional assay.

Chain of CD19 on tumor cells (Raji, Raji-Luc, NALM6, Reh) (human) (P15391 20-556): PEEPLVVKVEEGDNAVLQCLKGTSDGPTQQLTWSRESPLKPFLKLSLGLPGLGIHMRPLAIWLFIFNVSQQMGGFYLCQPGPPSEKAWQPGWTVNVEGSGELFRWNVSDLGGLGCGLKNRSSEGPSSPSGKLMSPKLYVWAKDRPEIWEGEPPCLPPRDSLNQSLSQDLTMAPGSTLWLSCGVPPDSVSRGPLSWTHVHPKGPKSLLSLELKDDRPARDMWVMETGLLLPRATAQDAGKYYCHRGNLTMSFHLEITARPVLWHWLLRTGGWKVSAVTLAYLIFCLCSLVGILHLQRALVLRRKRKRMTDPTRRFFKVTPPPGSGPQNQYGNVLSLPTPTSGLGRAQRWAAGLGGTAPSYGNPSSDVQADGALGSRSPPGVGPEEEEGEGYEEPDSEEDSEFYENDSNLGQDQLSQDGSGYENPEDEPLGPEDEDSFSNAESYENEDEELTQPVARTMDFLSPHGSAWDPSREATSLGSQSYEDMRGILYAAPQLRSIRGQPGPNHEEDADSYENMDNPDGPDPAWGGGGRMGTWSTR

Substance Blincyto (bispecific antibody) yielded an EC50 of CIK-mediated killing of NALM6 cells of 0.0773 nM; an EC50 of CIK-mediated killing of Raji-LUC cells of 0.000595 nM; an EC50 of CIK-mediated killing of Raji-LUC cells, second row of 0.00565 nM; an EC50 of CIK-mediated killing of Reh cells of 0.0119 nM. In addition, the EC50 of PBMC-mediated killing of Raji-LUC cells is 0.00545 nM; the EC50 of PBMC-mediated killing of Raji-LUC cells, second row is 0.0212 nM; the EC50 of PBMC-mediated killing of Raji-LUC cells, third row came out at 0.0226 nM; the EC50 of activation of Jurkat T cells with NFAT RE reporter in the presence of Raji target cells is 2.71 nM.

These data come from patent US20210371526A1.
